Results as given in the Human Domainome abundance scans (Beltran et al. 2025).

B1: POU domain, class 3, transcription factor 3, residues 408 to 463; numbered along this chain, P20264 (parent)
chain: KKRTSIEVSVKGALESHFLKCPKPSAQEITNLADSLQLEKEVVRVWFCNRRQKEKR

Variants of: B1
Experiment: abundance fitness (aPCA) (normalised: wild type 0, dead -1); higher = more abundant; growth selection in yeast, the domain comes from the species named
Conditions: Homo sapiens

Abundance fitness of substitutions, site by site:
F47: R -1.07; M -0.144; D -0.295; S -0.442; L -0.461
K53: G -0.212; D 0.196; N -0.248; V -0.03; R -0.044; L 0.032; E -0.013; F -0.156; M -0.167; P -0.6; Q -0.041; Y -0.288; H -0.194; A 0.076; T -0.067; I -0.121; C -0.152; S 0.068
V45: K -0.024; S 0.032; C -0.177; L -0.042; W -0.162; Q 0.052; T -0.028; Y -0.28; G -0.058; N -0.206; H 0.103; F -0.211; E 0.034; M -0.06; R -0.109; D 0.098
R51: K -0.534; L -0.005; C -0.345; M 0.031; F -0.385; Q -0.164; N -0.175; V -0.222; P -0.608; W 0.018; H -0.361; E -0.126; G -0.156; Y 0.243; A -0.105; I -0.207
K55: S -0.011; I -0.234; A -0.038; W -0.129; L -0.006; G 0.053; H -0.122; V -0.031; Q -0.132; M -0.096; T -0.095; C -0.14; E 0.024; P -0.265; R -0.089; N 0.021; D -0.079; F -0.312
C48: N 0.211; D -0.029; G -0.109; A -0.12; Q 0.131; E 0.069; R 0.035; Y 0.068; P -0.657; L -0.047; T 0.032; W -0.113; K -0.074; M 0.026; S 0.045; V 0.068; I 0.045
Q52: A 0.041; M -0.194; P -0.705; F -0.205; D 0.034; C -0.126; I -0.186; T -0.227; K -0.112; L -0.131; V -0.112; E 0.057; N -0.17; Y -0.257; G -0.146; W -0.185; S 0.014; H -0.113; R -0.138
N49: Y -0.381; K -0.276; T -0.097; H -0.034; S -0.098; Q 0.028; V -0.152; C -0.202; W -0.295; D -0.177; A -0.142; R -0.278; M -0.274; L -0.357; P -0.881; E 0.041; G -0.279; I -0.151
E54: V -0.252; G -0.234; M -0.148; H -0.432; A -0.185; S -0.365; I -0.748; P -0.543; N -0.474; Q -0.241; K -0.658; R -0.485; T -0.281; L -0.365; F -0.598; C -0.366; D 0.058
W46: S -0.422; R -0.248
R50: V -0.914; L -0.739; K -0.364; E -0.538; A -0.416; N -0.919; F -0.875; Y -0.889; Q -0.275; P -0.853; C -0.75; W -0.883; H -0.668; M -0.497; I -0.809; T -0.883
R56: N -0.143; W -0.272; G -0.068; C -0.435; A -0.046; H -0.277; S -0.151; T -0.05; E 0.093; P -0.226; V -0.039; M 0.002; D -0.247
